# Assay results taken from patent EP4659811A1 (Université de Strasbourg, dated 2025).
# Positions count from the first letter of the chain named.
# B1: antibody E10P2 (antibody, V domains shown)
# VH: EVQLLESGGALVQPGGSLRLSCAASGFTFRSYAMNWVRQAPGKGLEWVSSLSSSGTTTYYADSVKGRFTISRDNSKNTMYLQMDSLRGEDTAVYYCAKDRNAQWLGSEPLDPWGQGTLVTVSS
# VL: EIVLTQSPGTLSLSPGERATLSCRASQSVSSSYLAWYQQKPGQAPRLLIYGASSRATGIPDRFSGSGSGTDFTLTISSLQPDDFAIYYCQQAYTFPWTFGQGTKLEIK
# B2: antibody B8P7 (antibody, V domains shown)
# VH: QVQLQESGPGLVRPSETLSLTCTVSGGSISPYYWNWIRQPPGKGLEWIGYIYYSGNTKYNPSLKSRVTISVDTSKNQFSLKLSSVSAADTAVYYCARDSCSGTCYLGDNWFDPWGQGTLVTVSS
# VL: QSVLTQPPSVSGAPGQRVTISCTGSSSNIGANNDVHWYQHLPGTAPKLLIYGNNHRPSGVPDRFSGSKSGTSASLAITGLQAEDEADYYCQSYDSSLSTSKVFGGGTKLTVL
# B3: antibody C4P6 (antibody, V domains shown)
# VH: B2 VH with D108G
# VL: B2 VL
# B4: antibody G6P7 (antibody, V domains shown)
# VH: B2 VH
# VL: B2 VL with S9P
# B5: antibody C11P1 (antibody, V domains shown)
# VH: QVQLQESGPGLVKPSETLSLTCTVSGGSIRNSYWSWIRQPPGKGLEWIGYIYYTGTTNSNPSLKSRATISVHMSQNQISLKLNSVTPADTAVYYCAQGGGSGDLHYWGQGTLVTVSS
# VL: NFMLTQPASVSGSPGQSITISCTGTRSDVGGYNYVSWYQQHPGKAPKLMIYDISSRPSGVSNRFSASKSGNTASLTISGLQAEDEADYYCISFATGYTWVFGGGTRLTVL
# B6: antibody B2P8 (antibody, V domains shown)
# VH: B5 VH with A67V
# VL: EIVLTQSPDTLSLSPGARATLSCRASQSVRSNYLAWYQQKPGQAPRLLIYGASSRATAIPDRFSGSGSGTDFTLTITRLEPEDFAVYYCHQYASSPRTFGQGTKVEIK
# B7: antibody G5P1 (antibody, V domains shown)
# VH: B5 VH with E16G, A67V, Q75R
# VL: B5 VL
# B8: antibody E7P5 (antibody, V domains shown)
# VH: B5 VH with P40S, T56S, A67L, I69V
# VL: B5 VL with N1Q, F2S, M3A, M49I, R106S
# B9: antibody G8P7 (antibody, V domains shown)
# VH: QLQLQESGPGLVQPSETLSLTCTVSGGYISTSSYYWGWIRQPPGKGLEWIGSIEYSGSTYYNPSLKSRVTISVDTSKNQFSLKLSSVTAADTAVYYCASANSKYYDSGGYYAPGALDLWGQGTMVTVSS
# VL: EIVMTQSPATLSVSPGERATLSCRASQSVSSHLAWYQHKRGQAPRLLIYAASSRATGIPARFSGRGSGTEFTLTISSLQSEDFAVYYCQQYNNWPPGYSFGQGTKLEIK
# B10: antibody B5P4 (antibody, V domains shown)
# VH: QVQLVQSGAEVKKPGSSVKVSCKASGGRFSRYGSSWVRQAPGQGLEWMGGIIPLLGTANYAQKFQDRVSITADESTSTVYMHLSSLRSEDTAVYYCATARREYDRPGAEYFIQWGQGTLVTVSS
# VL: EIVMTQSPATLSVSPGERATLSCRASQSVSTNLAWYQQKPGQAPRLLIYDAFLRATGIPARFSGSGSGTEFTLTISSLQPEDFAVYYCQQYNYWPPLTFGGGTKVEIK
# B11: antibody B9P4 (antibody, V domains shown)
# VH: EVQLVESGGGVVQPGRSLRLSCAASGFTFSSYGMHWVRQAPGKGLEWVAVISKDGSNKYEADFVKGRFTISRDNSKNTLYLQMNSLRAEDTAVYYCAKIPLRRYSDSGDYSSGDFWGQGTLVTVSS
# VL: DVVMTQSPLSLTVTLGQPASISCRSSENLVYSDGNTYLSWFQQRPGQSPRRLIYKVSTRDSGVPDRFSGSGSGTDFTLKISRVEAEDVGVYYCMQTTHWPPLTFGGGTKVEIK
# B12: antibody E5P6 (antibody, V domains shown)
# VH: EVQLVESGGGVVQPGRSLRLSCAASGFIFNNHGMHWVRQAPGKGLEWVAGISYDGKKEYYIGSVKGRFTISRDNSRNTLYLHMNGLRPEDTAVYYCAKEAYGSGSPCDYWGQGTLVTVSS
# VL: EIVLTQSPGTLSLSPGERATLSCRASQRVSSNYLAWYQQKPGQAPRLLIYGASSRATGIPDRFSGSGSGTDFTLTISRLEPEDFAVYYCQQYGTSPRSFGRGTKLEIK
# B13: antibody C9P1 (antibody, V domains shown)
# VH: EVQLLESGGGLVQPGGSLRLSCVTSGFTFSSYSMTWVRQAPGKGLEWVSYISSSSRTISYADSVQGRFTISRDNAKNVLYLQMNSLRAEDTAVYYCARQAVAHFDYWGQGTLVTVSS
# VL: B12 VL with R101Q, L105V
# B14: antibody E2P6 (antibody, V domains shown)
# VH: EVQLVESGGGLIQPGGSLRLSCAASGFTVSTNCMSWVRQAPGTGLEWVSVIYSGGTTYYADSVKGRFTISRDNSRNTLYLQMNGLRAEDTAVYYCARSVDTYDIYALDVWGQGTTVTVSS
# VL: DIQMTQSPSTLSASVGDRVTITCRASQSISRWLAWYQQKPGKAPKLLIYKASGLHSGAPSRFSGSGSGTEFTLTISGLQPDDFATYFCQQYNSYPWTFGQGTKVEIK
# Target: VP1 capsid protein on BKV pseudovirions of genotype II (GBR-12; AB263920) (BK virus genotype II (GBR-12))
# Experiment: cell-based or functional assay
row,Binder,Neutralization PSV IC50
1,B1,20.1 µg/mL
2,B2,0.0004 µg/mL
3,B3,0.103 µg/mL
4,B4,0.0041 µg/mL
5,B5,0.0015 µg/mL
6,B6,> 50 µg/mL
7,B7,0.0016 µg/mL
8,B8,0.0002 µg/mL
9,B9,21.3 µg/mL
10,B10,> 50 µg/mL
11,B11,16.3 µg/mL
12,B12,> 50 µg/mL
13,B13,> 50 µg/mL
14,B14,> 50 µg/mL

# Target: VP1 capsid protein on BKV pseudovirions of genotype Ia (BK-D; JF894228) (BK virus genotype Ia (BK-D))
# Experiment: cell-based or functional assay
row,Binder,Neutralization PSV IC50
1,B1,1.64 µg/mL
2,B2,0.0019 µg/mL
3,B3,0.32 µg/mL
4,B4,0.0038 µg/mL
5,B5,0.351 µg/mL
6,B6,> 50 µg/mL
7,B7,0.538 µg/mL
8,B8,0.0719 µg/mL
9,B9,> 50 µg/mL
10,B10,> 3.12 µg/mL
11,B11,4.96 µg/mL
12,B12,> 50 µg/mL
13,B13,> 50 µg/mL
14,B14,> 50 µg/mL

# Target: VP1 capsid protein on BKV pseudovirions of genotype IVc2 (A-66H; AB369093) (BK virus genotype IVc2 (A-66H))
# Experiment: cell-based or functional assay
row,Binder,Neutralization PSV IC50
1,B1,> 50 µg/mL
2,B2,0.164 µg/mL
3,B3,0.726 µg/mL
4,B4,0.883 µg/mL
5,B5,0.0942 µg/mL
6,B6,> 50 µg/mL
7,B7,0.108 µg/mL
8,B8,0.0056 µg/mL
9,B9,> 50 µg/mL
10,B10,> 50 µg/mL
11,B11,> 50 µg/mL
12,B12,> 50 µg/mL
13,B13,> 50 µg/mL
14,B14,> 50 µg/mL

# Target: T1, VP1 pentamer of BKV genotype IV (recombinant) (BK virus genotype IV, UniProt P14996 30-300)
# T1 construct: also called GIV; VP1 BKV subtype IV; not shown: N-terminal His-tag of pESPRIT002; C-terminal biotin acceptor peptide (BAP) of pESPRIT002
# Experiment: ELISA, coated VP1 pentamer
Binder,binding result,EC50
B1,no binding (tested: starting at 50 µg/mL),
B2,,3 µg/mL
B3,,2.25 µg/mL
B4,,2.5 µg/mL
B5,,0.22 µg/mL
B6,,12 µg/mL
B7,,2.5 µg/mL
B8,,0.08 µg/mL
B9,,5 µg/mL
B10,no binding (tested: starting at 50 µg/mL),
B11,,≥ 10 µg/mL
B12,,5 µg/mL
B13,no binding (tested: starting at 50 µg/mL),
B14,,0.6 µg/mL

# Target: T2, VP1 pentamer of BKV genotype II (recombinant) (BK virus genotype II, UniProt P14996 30-300)
# T2 construct: also called GII; VP1 geno II pentamer; not shown: N-terminal His-tag of pESPRIT002; C-terminal biotin acceptor peptide (BAP) of pESPRIT002
# Experiment: ELISA, coated VP1 pentamer
Binder,binding result,EC50
B1,no binding (tested: starting at 50 µg/mL),
B2,,0.04 µg/mL
B3,,2.5 µg/mL
B4,,0.2 µg/mL
B5,,0.045 µg/mL
B6,,5 µg/mL
B7,,0.07 µg/mL
B8,,0.055 µg/mL
B9,,25 µg/mL
B10,no binding (tested: starting at 50 µg/mL),
B11,,≥ 7 µg/mL
B12,,6 µg/mL
B13,no binding (tested: starting at 50 µg/mL),
B14,,0.14 µg/mL
